Assay results from patent US7294472B2, “Method for identifying modulators of G protein coupled receptor signaling” (Caden Biosciences, priority 2001, dated 2007).

How the values were obtained:
[1] = biological target: T1, PAR1 (Homo sapiens, UniProt P25116); test: Binding of MBP-Gαq to purified, reconstituted activated PAR1 (ELISA); design: made in house; host or cells: Sf9 insect cells infected with ThR/pBluebac recombinant virus, purified on an anti-PAR1 monoclonal antibody column; details: purified reconstituted PAR1 with thrombin receptor activating peptide
T1 sequence (P25116 22-425): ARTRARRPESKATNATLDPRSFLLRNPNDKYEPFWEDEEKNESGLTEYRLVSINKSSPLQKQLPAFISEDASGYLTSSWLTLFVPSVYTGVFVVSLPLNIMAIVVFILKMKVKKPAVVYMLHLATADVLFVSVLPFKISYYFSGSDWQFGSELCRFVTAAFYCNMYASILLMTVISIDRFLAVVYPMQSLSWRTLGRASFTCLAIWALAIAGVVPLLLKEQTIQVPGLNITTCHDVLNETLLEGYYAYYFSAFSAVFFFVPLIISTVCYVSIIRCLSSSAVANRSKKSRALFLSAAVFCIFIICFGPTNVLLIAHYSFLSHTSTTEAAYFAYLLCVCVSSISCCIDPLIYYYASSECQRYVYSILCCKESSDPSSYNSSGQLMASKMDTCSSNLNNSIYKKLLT
Description: Microtiter wells were coated with purified, reconstituted PAR1 in the presence of […] thrombin receptor activating peptide, as described above in Example 6. Purified maltose binding protein-Gαq (MBP-Gαq) was added at the concentrations indicated in FIG. 11 and incubated one hour on a shaker at 4° C. The wells were rinsed and then probed with a rabbit anti-maltose binding protein antibody, followed by alkaline phosphatase conjugated secondary antibodies, as described above. Substrate was added and the color was allowed to develop about 20 minutes. Absorbance at 405 nm was measured and dose-response curves were calculated using GraphPad Prism (version 2.0). See results in FIG. 11.

[2] = biological target: T2, rhodopsin (Bos taurus, UniProt P02699); test: "extra MII" assay: stabilization of metarhodopsin II; type: biochemical, bovine
T2 construct: Bovine rod outer segments (rhodopsin-containing membranes) were prepared from fresh retinas; from tissue; host or cells: bovine retina, rod outer segment membranes (EDTA- and urea-washed)
T2 sequence (P02699 whole entry): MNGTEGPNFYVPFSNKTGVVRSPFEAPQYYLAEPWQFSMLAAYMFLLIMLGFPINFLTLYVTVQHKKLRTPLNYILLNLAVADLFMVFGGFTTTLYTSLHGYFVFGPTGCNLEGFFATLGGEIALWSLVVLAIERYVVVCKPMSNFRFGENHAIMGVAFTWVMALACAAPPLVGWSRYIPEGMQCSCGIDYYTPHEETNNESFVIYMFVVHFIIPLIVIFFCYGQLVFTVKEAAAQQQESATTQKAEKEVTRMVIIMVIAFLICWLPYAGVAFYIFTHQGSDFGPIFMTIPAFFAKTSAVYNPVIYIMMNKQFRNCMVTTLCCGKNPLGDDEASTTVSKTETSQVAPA
Description: Rhodopsin can be measured spectrophotometrically in many of its conformational states. The high affinity, biologically active rhodopsin state can be easily differentiated from its precursor, MI, by the “extra” MII assay. See Example 35. This assay relies on the observation that under conditions of high pH and low temperature, MII is stabilized in the presence of Gt and can be spectrophotometrically measured. The ability of the C-terminal peptide to stabilize Meta II in the same manner as the heterotrimeric Gt, provides the tools to investigate the structural basis of the interaction of G proteins with the agonist binding sites of activated receptors.
For the “extra MII” assay, EDTA-washed rhodopsin (Example 5; 5 μM) is incubated in a 50 mM HEPES buffer, pH 8.2, with 100 mM NaCl, 1 mM MgCl2, and 1 mM DTT at 5.3° C., in the absence or presence of varying concentrations of Gt340-350 analogs or Gt. The sample is maintained at 5.4° C. using a water-jacketed and thermostated circulator cuvette holder in an SLM Aminco DW2000 spectrophotometer at 390 and 440 nm. A flash of light bleaching 10% of the rhodopsin is presented and after a 1 min incubation, a second spectrum is measured and the difference in spectrum calculated. “Extra” MII is calculated as the difference between the absorbance at 390 and 440. Dose response curves of MII stabilization by αt340350 (λ), mutant α340-350K341L(ν), and heterotrimeric Gt (v) were analyzed by non-linear regression using the program GraphPad PRISM and are shown in FIG. 23.
EDTA-washed rhodopsin (5 μM) was incubated in a 50 mM HEPES buffer, pH 8.2, with 100 mM NaCl, 1 mM MgCl2, and 1 mM DTT at 5.3° C., and “extra” MII was measured. For compounds that enhanced MBP-8 binding over 25% using the color coded readout, dose studies were performed to generate EC50 curves. Table XXII below provides the calculated EC50 for metarhodopsin II stabilization of each compound.

[3] = biological target: T3, light-activated rhodopsin (Bos taurus, UniProt P02699); test: Competition of heterotrimeric Gt with MBP high affinity peptide fusion proteins for rhodopsin; type: binding, bovine; details: 1 μM heterotrimeric Gt
T3 construct: Bovine rod outer segments (rhodopsin-containing membranes) were prepared from fresh retinas; from tissue; host or cells: bovine retina, rod outer segment membranes (EDTA- and urea-washed)
T3 sequence (P02699 whole entry, the tested form may be a part): as the sequence (P02699 whole entry) above
Description: When light-activated rhodopsin was screened for peptides based on the C-terminus of Gt, a large number of high-affinity sequences were obtained. Binding of MBP fusion proteins containing the high affinity peptide from the library (sequences from clones 8, 9, 10, 18, 23, 24, as well as pELM17 which encodes the wild-type peptide sequence, and pELM6 which contains no peptide; MBP-8, MBP-9, MBP-10, MBP-18, MBP-23, MBP-24, MBP-pELM17) were assessed for their ability to bind rhodopsin (0.5 μg rhodopsin/well) in the presence or absence of heterotrimeric Gt.
Lysate (50 μl) from each clone was added and incubated in the light. After 45 minutes, 1 μM heterotrimeric Gt was added and the solution incubated for 30 minutes. Anti-MBP antibody was added, followed by goat anti-rabbit alkaline phosphatase conjugated antibody and substrate. The color was allowed to develop.

| IC50 [1] [nM] | stabilization of MII (in words) [2] | effect on high affinity peptide fusion protein binding to light-activated rhodopsin (in words) [3] | Substance |
| --- | --- | --- | --- |
| 214 |  |  | MBP-Gαq: purified maltose binding protein fused to native Gαq C-terminal peptide |
|  | stabilize the active form of rhodopsin | competitively inhibited | heterotrimeric Gt: heterotrimeric G protein, transducin (Gt) [reference compound] |
